Values quoted from earlier work, collected in PMC12593480.

Target: IL6 (Homo sapiens) (UniProt P05231)
UniProt P05231, sequence (P05231 30-212): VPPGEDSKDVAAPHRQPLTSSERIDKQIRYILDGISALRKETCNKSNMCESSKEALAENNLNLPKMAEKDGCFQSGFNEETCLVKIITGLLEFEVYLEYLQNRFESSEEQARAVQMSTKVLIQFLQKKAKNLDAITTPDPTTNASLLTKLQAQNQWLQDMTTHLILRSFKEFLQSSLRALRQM

IL6 receptor alpha (from UniProt P08887)
Kd: 9 nM
